Measured values taken from publication PMC10325834, “Characteristics of Mycobacterium tuberculosis PtpA interaction and activity on the alpha subunit of human mitochondrial trifunctional protein, a key enzyme of lipid metabolism” (Frontiers in Cellular and Infection Microbiology, 2023).

Molecular target: T1, human mitochondrial trifunctional protein (hTFP α/β) immunopurified from macrophages (human (endogenous in macrophages), UniProt P40939-1 37-763; P55084 34-474, phosphotyrosine: 21% of the immunopurified hTFP is phosphorylated on Tyr (sites not identified))
T1 construct: also called immunopurified hTFP; hTFPα from macrophages; source: endogenous, macrophage extract; immunoprecipitated with anti-TFP monoclonal antibody (ab110302) on beads, eluted with 50 mM citrate pH 2.6
Assay: SPR
Conditions: both partners purified

T1 sequence (P40939 37-763, chain 1 of 2): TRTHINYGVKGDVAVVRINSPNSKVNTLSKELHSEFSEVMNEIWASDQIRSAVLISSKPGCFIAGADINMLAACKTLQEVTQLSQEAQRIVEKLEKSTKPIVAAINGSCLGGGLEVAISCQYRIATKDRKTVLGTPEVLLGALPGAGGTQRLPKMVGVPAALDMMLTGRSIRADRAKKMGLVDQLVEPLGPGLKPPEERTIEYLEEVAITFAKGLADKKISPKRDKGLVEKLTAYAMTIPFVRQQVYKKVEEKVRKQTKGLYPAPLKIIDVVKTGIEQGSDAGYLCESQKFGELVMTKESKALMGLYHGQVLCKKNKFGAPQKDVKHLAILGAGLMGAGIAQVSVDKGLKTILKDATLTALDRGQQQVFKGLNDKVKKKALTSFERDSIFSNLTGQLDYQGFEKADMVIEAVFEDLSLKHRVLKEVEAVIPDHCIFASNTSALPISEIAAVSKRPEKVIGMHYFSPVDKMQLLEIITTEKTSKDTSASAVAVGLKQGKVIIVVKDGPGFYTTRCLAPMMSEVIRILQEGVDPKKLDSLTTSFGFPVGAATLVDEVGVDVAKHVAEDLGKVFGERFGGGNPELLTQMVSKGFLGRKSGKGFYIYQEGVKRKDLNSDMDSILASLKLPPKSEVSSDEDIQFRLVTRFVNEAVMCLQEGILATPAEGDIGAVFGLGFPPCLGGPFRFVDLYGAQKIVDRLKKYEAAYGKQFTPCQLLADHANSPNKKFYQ
T1 sequence (P55084 34-474, chain 2 of 2): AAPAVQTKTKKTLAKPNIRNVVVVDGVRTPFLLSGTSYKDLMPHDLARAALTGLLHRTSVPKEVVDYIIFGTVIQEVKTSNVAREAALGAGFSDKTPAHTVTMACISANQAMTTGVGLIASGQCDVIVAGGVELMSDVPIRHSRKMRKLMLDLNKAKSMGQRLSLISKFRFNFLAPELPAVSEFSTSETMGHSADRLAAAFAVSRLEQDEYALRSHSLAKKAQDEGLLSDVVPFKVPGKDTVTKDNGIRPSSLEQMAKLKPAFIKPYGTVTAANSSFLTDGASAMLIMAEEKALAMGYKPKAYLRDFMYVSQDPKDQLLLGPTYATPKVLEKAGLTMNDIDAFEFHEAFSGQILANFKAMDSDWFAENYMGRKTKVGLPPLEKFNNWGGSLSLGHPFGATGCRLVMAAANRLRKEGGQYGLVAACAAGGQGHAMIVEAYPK

B1: Mycobacterium tuberculosis PtpA, recombinant wild type (enzyme)
chain: MSDPLHVTFVCTGNICRSPMAEKMFAQQLRHRGLGDAVRVTSAGTGNWHVGSCADERAAGVLRAHGYPTDHRAAQVGTEHLAADLLVALDRNHARLLRQLGVEAARVRMLRSFDPRSGTHALDVEDPYYGDHSDFEEVFAVIESALPGLHDWVDERLARNGPS
notes: also called rPtpA; PtpA-wt
For B1, which Kd is on record?
The Kd was 310 nM.
